Experimental data published in article PMC12578637, “Structure of a distinct β-barrel assembly machinery complex in the Bacteroidota” (Nature Microbiology, 2025).

T1: BtBamI (Bt3727) (B. thetaiotaomicron (endogenous in B. …, UniProt Q8A1D9 22-493, lipid anchor cysteine)); O-glycosylation at 10 sites (Ser67 among them))
T1 sequence (looked up): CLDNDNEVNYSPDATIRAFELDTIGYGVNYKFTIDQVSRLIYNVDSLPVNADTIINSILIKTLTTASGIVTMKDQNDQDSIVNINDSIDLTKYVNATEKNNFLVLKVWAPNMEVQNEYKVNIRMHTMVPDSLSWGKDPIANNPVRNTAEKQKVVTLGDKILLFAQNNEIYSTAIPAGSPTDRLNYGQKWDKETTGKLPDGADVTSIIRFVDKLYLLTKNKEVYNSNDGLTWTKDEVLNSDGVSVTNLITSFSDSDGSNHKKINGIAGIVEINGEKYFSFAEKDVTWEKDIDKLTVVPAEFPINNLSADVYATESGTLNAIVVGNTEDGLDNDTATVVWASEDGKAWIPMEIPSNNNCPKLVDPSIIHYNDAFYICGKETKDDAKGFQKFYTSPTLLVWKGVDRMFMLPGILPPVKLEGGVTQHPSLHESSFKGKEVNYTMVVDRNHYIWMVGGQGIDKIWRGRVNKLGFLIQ

T2: BtBamA (Bt3725), B. thetaiotaomicron BamA with N-terminal His7 tag (B. thetaiotaomicron, UniProt Q8A1E1 20-885)
T2 sequence (looked up): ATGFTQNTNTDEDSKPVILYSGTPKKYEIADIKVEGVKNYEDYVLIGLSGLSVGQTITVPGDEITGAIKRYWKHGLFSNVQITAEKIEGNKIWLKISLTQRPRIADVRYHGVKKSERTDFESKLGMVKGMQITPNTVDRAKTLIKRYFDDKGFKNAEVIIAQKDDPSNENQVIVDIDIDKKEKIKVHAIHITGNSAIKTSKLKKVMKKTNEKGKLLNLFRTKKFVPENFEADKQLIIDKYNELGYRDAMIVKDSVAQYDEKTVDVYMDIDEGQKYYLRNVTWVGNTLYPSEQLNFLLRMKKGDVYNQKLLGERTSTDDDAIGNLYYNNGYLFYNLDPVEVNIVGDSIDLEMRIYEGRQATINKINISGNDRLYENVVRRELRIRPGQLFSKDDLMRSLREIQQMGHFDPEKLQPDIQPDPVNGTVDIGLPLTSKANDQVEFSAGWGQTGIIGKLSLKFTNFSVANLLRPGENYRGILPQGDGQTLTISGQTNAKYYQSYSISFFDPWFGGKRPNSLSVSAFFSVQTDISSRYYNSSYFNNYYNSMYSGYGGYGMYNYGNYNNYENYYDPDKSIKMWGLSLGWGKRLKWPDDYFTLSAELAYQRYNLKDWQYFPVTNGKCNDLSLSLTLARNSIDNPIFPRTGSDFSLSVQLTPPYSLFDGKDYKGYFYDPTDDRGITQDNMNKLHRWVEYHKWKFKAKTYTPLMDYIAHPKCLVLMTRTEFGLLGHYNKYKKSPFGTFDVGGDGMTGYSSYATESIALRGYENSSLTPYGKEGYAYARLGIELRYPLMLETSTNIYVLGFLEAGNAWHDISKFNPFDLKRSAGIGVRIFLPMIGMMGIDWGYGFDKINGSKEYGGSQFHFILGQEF

B1: BtBamJ (Bt3612) (natural protein, UniProt Q8A1P7 20-196, looked up)
chain: CSETEEVGKYDNWRARNEAFIDSLANVYATASGRGGLERIEMLTAPGNYIYYKEMEPMTDHVVKAGNPKYTDYVKVYYKGTNILGEYFDGNFKGDNPVVDGKDPSEGDSPTTIFQVSGVITGWGEVLQRMEVGDRWKVYIPWDYAYGSSGTTGILGYSALVFDITLLDFANTEAELK
modifications: lipid anchor cysteine; O-glycosylation sites
B2: BtBamH (Bt4306) (natural protein, UniProt Q89ZS0 18-542, looked up)
chain: CDDNTGGLGLGMFPGNDQNIKGKLSTFDVTTESVKTGDIYAKTNIGYIGKFTDETFGTYQAGFLAQLNCPDGLTFPEPYKEVTDASGNVISATGRMVVDDKDPENKDVTFIKDGNQIIGNIRAVELYLWYDSYFGDSLTACRLSVYELGGNGKETLNLDNAYYTDINPEDFYDSQNILGTKAYTAVDLSVKDSIRNLSTYVPSVHIAFKEDIATRVGGNILTAARKAKNADKEFNSQLFREAFQGIYVKSDYGDGTVLYIDQPQMNVVYKCYATDSITGKKLQKKDGSGKDSTYYSYRVFATTREVIQANQLKNDPERIDALIKEDKNTYLKSPAGIFTEATLPISDIQNELTGDTLNAVKLTFTNYNQTGDKKFGMAIPSTVMLVRKKFQDSFFKDNKLSDGVSSYLTSHTSSTNQYVFSNITKLVNACIAEKEEAKKNAGSSWDETKWLQENPDWNKVVLIPVLVTYDSSNTTTGQANIIRIQHDLKPGYVRLKGGSLGKTNPDYKLKLEVISTDFGLTTKSN
modifications: tri-acylated lipid anchor on the N-terminal cysteine; O-glycosylation (Ser309 among the sites)

Key:
Assay in all cases: cryo-EM structure; BtBAM complex co-purified through BamAhis from native membranes, in DDM, 8 mg/ml; two 3D classes (3.28 Å and 3.46 Å); AF2 models docked and refined
Settings in all cases: both partners purified
BtBamH (Bt4306) = target: B2
BtBamI (Bt3727) = target: T1, BtBamI (Bt3727)
[1] = target: T2, BtBamA (Bt3725), B. thetaiotaomicron …

**Q.** Does B1 bind (BtBamH (Bt4306))?
**A.** binds

**Q.** Does B1 bind (BtBamI (Bt3727))?
**A.** binds

**Q.** Does B2 bind [1]?
**A.** binds
